According to patent US20060024300A1 (published 2006):

T1: CD20 (human, UniProt P11836 1-297)
T1 construct: whole, on cells; not clear that this entry is the whole human CD20, so it is not used; also called human CD20; CD20 antigen
T1 sequence (looked up): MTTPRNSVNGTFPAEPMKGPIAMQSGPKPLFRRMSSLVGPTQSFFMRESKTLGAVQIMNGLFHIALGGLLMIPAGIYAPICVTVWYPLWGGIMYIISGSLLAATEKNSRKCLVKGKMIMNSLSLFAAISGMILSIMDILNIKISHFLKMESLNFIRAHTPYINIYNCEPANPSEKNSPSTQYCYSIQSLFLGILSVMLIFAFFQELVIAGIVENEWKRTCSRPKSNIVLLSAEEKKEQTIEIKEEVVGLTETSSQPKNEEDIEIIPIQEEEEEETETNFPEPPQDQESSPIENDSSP


Tests used:
CD20 [1] = biological target: T1, CD20; assay: cell-based ELISA, WIL2-S cells
Method: To measure relative binding affinities to the CD20 antigen, a cell-based ELISA assay was developed. […] The cells were washed with PBS containing 1% FBS (assay buffer) and seeded at 250-300,000 cellwell in 96-well round bottom plates (Nunc, Roskilde, Denmark). […] The plates were buried in ice and incubated for 45 min. To remove the unbound antibody, 0.1 mL assay buffer were added to the wells. Plates were centrifuged and supernatants were removed. Cells were washed two more times with 0.2 mL assay buffer. Antibody bound to the plates was detected by adding peroxidase conjugated goat anti-human Fc antibody (Jackson ImmunoResearch, West Grove, Pa.) to the plates. After a 45 min incubation, cells were washed as described before. TMB substrate (3,3′,5,5′-tetramethyl benzidine; Kirkegaard & Perry Laboratories, Gaithersburg, Md.) was added to the plates. The reaction was stopped by adding 1 M phosphoric acid. Titration curves were fit with a four-parameter nonlinear regression curve-fitting program (KaleidaGraph, Synergy software, Reading, Pa.). The absorbance at the midpoint of the titration curve (mid-OD) and its corresponding concentration of the standard were determined. Then the concentration of each variant at this mid-OD was determined, and the concentration of the standard was divided by that of each variant.

CD20 [2] = biological target: T1, CD20; assay: Scatchard analysis, cold antibody against 125I-2H7.v16 on WIL2-S cells
Method: All dilutions were performed in binding assay buffer (DMEM media containing 1% bovine serum albumin, 25 mM HEPES pH 7.2, and 0.01% sodium azide). […] WIL2-S cells (60,000 cells in 0.025 mL) were then added. The plate was sealed and incubated at room temperature for 24 h, then centrifuged for 15 min at 3,500 RPM. The supernatant was then aspirated and the cell pellet was washed and centrifuged. The supernatant was again aspirated, and the pellets were dissolved in 1N NaOH and transferred to tubes for gamma counting.

Relative binding (CD20 [1])	Kd (CD20 [2])	Binder
0.99 ratio (2H7.v16 conc./variant conc.)		2H7 version 166 (antibody, human IgG1, kappa, V domains shown, IgG1; 2H7.v16 background; Y100b is deleted (empty new residue)) VH: EVQLVESGGGLVQPGGSLRLSCAASGYTFTSYNMHWVRQAPGKGLEWVGAIYPGNGDTSYNQKFKGRFTISVDKSKNTLYLQMNSLRAEDTAVYYCARVVYYGGDWYFDVWGQGTLVTVSS VL: DIQMTQSPSSLSASVGDRVTITCRASSSVSYMHWYQQKPGKAPKPLIYAPSNLASGVPSRFSGSGSGTDFTLTISSLQPEDFATYYCQQWSFNPPTFGQGTKVEIKR
	1.22 nM	2H7.v73 (antibody, IgG1, IgG1; 2H7.v16 background) heavy: not shown light: DIQMTQSPSSLSASVGDRVTITCRASSSVSYLHWYQQKPGKAPKPLIYAPSNLASGVPSRFSGSGSGTDFTLTISSLQPEDFATYYCQQWSFNPPTFGQGTKVEIKRTVAAPSVFIFPPSDEQLKSGTASVVCLLNNFYPREAKVQWKVDNALQSGNSQESVTEQDSKDSTYSLSSTLTLSKADYEKHKVYACEVTHQGLSSPVTKSFNRGEC
	1.09 nM	2H7.v75 (antibody, IgG1, IgG1; 2H7.v16 background) heavy: EVQLVESGGGLVQPGGSLRLSCAASGYTFTSYNMHWVRQAPGKGLEWVGAIYPGNGDTSYNQKFKGRFTISVDKSKNTLYLQMNSLRAEDTAVYYCARVVYYSASYWYFDVWGQGTLVTVSSASTKGPSVFPLAPSSKSTSGGTAALGCLVKDYFPEPVTVSWNSGALTSGVHTFPAVLQSSGLYSLSSVVTVPSSSLGTQTYICNVNHKPSNTKVDKKVEPKSCDKTHTCPPCPAPELLGGPSVFLFPPKPKDTLMISRTPEVTCVVVDVSHEDPEVKFNWYVDGVEVHNAKTKPREEQYNATYRVVSVLTVLHQDWLNGKEYKCKVSNKALPAPIAATISKAKGQPREPQVYTLPPSREEMTKNQVSLTCLVKGFYPSDIAVEWESNGQPENNYKTTPPVLDSDGSFFLYSKLTVDKSRWQQGNVFSCSVMHEALHNHYTQKSLSLSPGK light: DIQMTQSPSSLSASVGDRVTITCRASSSVSYLHWYQQKPGKAPKPLIYAPSNLASGVPSRFSGSGSGTDFTLTISSLQPEDFATYYCQQWSFNPPTFGQGTKVEIKRTVAAPSVFIFPPSDEQLKSGTASVVCLLNNFYPREAKVQWKVDNALQSGNSQESVTEQDSKDSTYSLSSTLTLSKADYEKHKVYACEVTHQGLSSPVTKSFNRGEC
